Experimental findings from publication PMC5720862 (Developmental cell, 2017) are described below.

Read-outs that look alike come from different tables or passages of the source.

Holding throughout (experiment): pull-down
One assay concerns the target T1, GST-DSK2A (Arabidopsis thaliana, UniProt Q9SII9 1-538).
T1 sequence (looked up): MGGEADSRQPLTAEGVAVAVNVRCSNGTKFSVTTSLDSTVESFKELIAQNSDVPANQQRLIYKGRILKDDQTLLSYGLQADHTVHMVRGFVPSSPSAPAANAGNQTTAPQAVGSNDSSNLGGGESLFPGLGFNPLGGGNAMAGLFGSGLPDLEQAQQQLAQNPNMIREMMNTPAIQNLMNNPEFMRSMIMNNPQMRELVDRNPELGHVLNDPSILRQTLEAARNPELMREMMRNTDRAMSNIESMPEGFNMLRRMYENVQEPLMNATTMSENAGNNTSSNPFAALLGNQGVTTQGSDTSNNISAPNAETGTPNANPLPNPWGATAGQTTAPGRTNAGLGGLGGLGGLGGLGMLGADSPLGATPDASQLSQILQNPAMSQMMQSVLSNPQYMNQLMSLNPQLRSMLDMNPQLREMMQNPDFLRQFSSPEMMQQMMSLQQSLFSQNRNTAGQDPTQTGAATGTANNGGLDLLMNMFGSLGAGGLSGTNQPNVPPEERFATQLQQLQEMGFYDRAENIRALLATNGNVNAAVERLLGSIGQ

The target in assay [1] is T2, DSK2A-MBP (Arabidopsis thaliana, UniProt Q9SII9 1-538).
T2 sequence (looked up): T1 sequence (looked up)

Assay [2] concerns the target T2, DSK2A-MBP. This is another data set of the same source.
A further assay has as its target T3, DSK2A-HIS (Arabidopsis thaliana, UniProt Q9SII9 1-538).
T3 sequence (looked up): T1 sequence (looked up)

B1: SINAT2-MBP (enzyme, Arabidopsis thaliana, UniProt Q9M2P4 1-308, looked up)
chain: MAPGGSALKEVMESNSTGMDYEVKTAKVEVNNNKPTKPGSAGIGKYGIHSNNGVYELLECPVCTNLMYPPIHQCPNGHTLCSNCKLRVQNTCPTCRYELGNIRCLALEKVAESLEVPCRYQNLGCHDIFPYYSKLKHEQHCRFRPYTCPYAGSECSVTGDIPTLVVHLKDDHKVDMHDGCTFNHRYVKSNPHEVENATWMLTVFNCFGRQFCLHFEAFQLGMAPVYMAFLRFMGDENEAKKFSYSLEVGAHGRKLTWQGIPRSIRDSHRKVRDSQDGLIIPRNLALYFSGGDRQELKLRVTGRIWKEE
B1: the binding result with GST-DSK2A is listed as “binds”.

B2: GST-ATG8e (natural protein, Arabidopsis thaliana, UniProt Q8S926 1-118, looked up)
chain: MNKGSIFKMDNDFEKRKAEAGRIREKYPDRIPVIVEKAEKSEVPNIDKKKYLVPSDLTVGQFVYVIRKRIKLSAEKAIFIFVDNVLPPTGELMSSVYEDKKDEDGFLYITYSGENTFG
Consider B2, for which the binding result in the assay with DSK2A-MBP [1] was “binds”.

B3: GST-ATG8i (natural protein, Arabidopsis thaliana, UniProt Q9LRP7 1-115, looked up)
chain: MKSFKEQYTLDERLAESREIIAKYPTRIPVIAEKYCKTDLPAIEKKKFLVPRDMSVGQFIYILSARLHLSPGKALFVFVNNTLPQTAALMDSVYESYKDDDGFVYMCYSSEKTFG
Turning to B3, the binding result in the assay with DSK2A-MBP [1] is recorded as “binds”.

B4: BIN2, recombinant, of the in vitro pull-down with DSK2 (enzyme, Arabidopsis thaliana, UniProt Q39011 1-380, looked up)
chain: MADDKEMPAAVVDGHDQVTGHIISTTIGGKNGEPKQTISYMAERVVGTGSFGIVFQAKCLETGETVAIKKVLQDRRYKNRELQLMRVMDHPNVVCLKHCFFSTTSKDELFLNLVMEYVPESLYRVLKHYSSANQRMPLVYVKLYMYQIFRGLAYIHNVAGVCHRDLKPQNLLVDPLTHQVKICDFGSAKQLVKGEANISYICSRFYRAPELIFGATEYTTSIDIWSAGCVLAELLLGQPLFPGENAVDQLVEIIKVLGTPTREEIRCMNPHYTDFRFPQIKAHPWHKIFHKRMPPEAIDFASRLLQYSPSLRCTALEACAHPFFDELREPNARLPNGRPFPPLFNFKQEVAGSSPELVNKLIPDHIKRQLGLSFLNQSGT
With B4, the binding result with DSK2A-MBP [2] was “binds”.

B5: GST-ATG8a (natural protein, Arabidopsis thaliana, UniProt Q8LEM4 1-117, looked up)
chain: MAKSSFKISNPLEARMSESSRIREKYPDRIPVIVEKAGQSDVPDIDKKKYLVPADLTVGQFVYVVRKRIKLGAEKAIFVFVKNTLPPTAALMSAIYEEHKDEDGFLYMTYSGENTFG
For the molecule B5, in the assay with DSK2A-MBP [1], the binding result was “binds”.

B6: phosphorylated BES1-MBP (natural protein, Arabidopsis thaliana, UniProt Q9LN63 1-335, looked up)
chain: MTSDGATSTSAAAAAAAMATRRKPSWRERENNRRRERRRRAVAAKIYTGLRAQGNYNLPKHCDNNEVLKALCSEAGWVVEEDGTTYRKGHKPLPGDMAGSSSRATPYSSHNQSPLSSTFDSPILSYQVSPSSSSFPSPSRVGDPHNISTIFPFLRNGGIPSSLPPLRISNSAPVTPPVSSPTSRNPKPLPTWESFTKQSMSMAAKQSMTSLNYPFYAVSAPASPTHHRQFHAPATIPECDESDSSTVDSGHWISFQKFAQQQPFSASMVPTSPTFNLVKPAPQQLSPNTAAIQEIGQSSEFKFENSQVKPWEGERIHDVAMEDLELTLGNGKAHS
modifications: phosphorylated in vitro by BIN2-GST (sites not given)
For B6, the binding result with DSK2A-HIS is listed as “binds”.

B7: GST-ATG8f (natural protein, Arabidopsis thaliana, UniProt Q8VYK7 1-117, looked up)
chain: MAKSSFKQEHDLEKRRAEAARIREKYPDRIPVIVEKAEKSDIPTIDKKKYLVPADLTVGQFVYVIRKRIKLSAEKAIFIFVDNVLPPAGALMSSVYEEKKDDDGFLYVTYSGENTFG
As to B7, the binding result in the assay with DSK2A-MBP [1] is on record as “binds”.
